The source of these data is patent US20180057604A1 (Genentech, published 2018).

Assay [1] concerns the target T1, cyno TfR extracellular domain (analogous construct to human TfR ecd) (cynomolgus monkey, UniProt Q5RDH6 87-760 (Pongo abelii entry)).
T1 construct: also called cynoTfR ecd
T1 chain: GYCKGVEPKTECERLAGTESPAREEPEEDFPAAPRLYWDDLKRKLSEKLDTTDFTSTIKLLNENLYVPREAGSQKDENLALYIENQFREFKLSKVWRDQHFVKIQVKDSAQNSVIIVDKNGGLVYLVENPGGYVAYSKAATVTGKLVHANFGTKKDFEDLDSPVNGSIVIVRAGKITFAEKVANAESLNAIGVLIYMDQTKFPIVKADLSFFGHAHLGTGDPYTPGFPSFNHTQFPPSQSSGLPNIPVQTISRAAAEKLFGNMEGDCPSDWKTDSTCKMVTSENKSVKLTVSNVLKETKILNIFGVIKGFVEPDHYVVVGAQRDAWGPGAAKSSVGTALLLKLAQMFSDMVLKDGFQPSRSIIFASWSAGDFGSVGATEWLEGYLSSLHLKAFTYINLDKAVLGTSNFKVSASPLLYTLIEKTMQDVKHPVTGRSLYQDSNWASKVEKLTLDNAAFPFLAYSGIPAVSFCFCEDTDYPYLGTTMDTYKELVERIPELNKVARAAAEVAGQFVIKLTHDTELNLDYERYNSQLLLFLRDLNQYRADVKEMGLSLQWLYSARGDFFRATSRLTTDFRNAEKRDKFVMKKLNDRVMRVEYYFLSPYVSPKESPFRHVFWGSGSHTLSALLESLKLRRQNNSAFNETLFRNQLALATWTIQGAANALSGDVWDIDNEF
The assay can be described thus: SPR, TfR captured by anti-His, Fab injected. On the technique in general: SPR reads the build-up and loss of mass on a sensor chip optically.

Assay [2] has as its target T2, human TfR extracellular domain with N-terminal His tag (human, UniProt P02786 89-760).
T2 construct: Biotinylated in some assays; also called huTfR; HuTfR
The assay can be described thus: SPR, TfR captured by anti-His, Fab injected.

The target of assay [3] is T1, cyno TfR extracellular domain …. Description: SPR, KD on cyno TfR over KD on human TfR.
Description: (§1) Antibody affinities were measured using surface plasmon resonance (“SPR”) (Biacore™, GE Healthcare). Anti-His antibody (Qiagen) was coupled onto four different flow cells of a BIACORE™ CM5 sensor chip (Biacore, Inc., Piscataway, N.J.) at between 6000 and 8000 RU. Immobilization was achieved by random coupling through amino groups using a protocol provided by the manufacturer. 10×HBS-P (Biacore, Inc., Piscataway, N.J.) was diluted in water and served as the dilution and running buffer. Purified human or cyno TfR was captured, followed by a 3-fold dilution series of IgG or Fab that was injected at a flow rate of 30 ml/min using the single cycle kinetics method. Affinity constants were determined using a simple 1:1 Langmuir binding model or using a steady state model when kₒₙ or koff was beyond the detection limit. The equilibrium dissociation constant (KD) was calculated as the ratio of association rate constant (kₒₙ) and dissociation rate constant (koff).
(§2) In both cases, the SPR experiments were performed as described above.
Assay [4] concerns the target T2, human TfR extracellular domain with …. The assay can be described thus: SPR steady state, IgG.
Description: as §1
(§3) These variants were screened as IgG by ELISA and SPR to identify positions important for binding to human and cyno TfR; the monovalent affinity of selected variants as Fab was also determined. […] Plates were washed with PBS/0.05% Tween 20 and blocked using Superblock blocking buffer in PBS (Thermo Scientific, Hudson, N.H.). Supernatants containing expressed IgG were diluted serially 1:5 and added to the plate for 1 h. […] Plates were washed with PBS/0.05% Tween 20 and 1:1000 diluted HRP-Goat-anti kappa (Southern Biotech) was added the plate and incubated for 1 h at room temperature. Plates were washed with PBS/0.05% Tween 20 and detected using TMB substrate (BioFX Laboratories, Owings Mills). Binding was also assessed by SPR, as described above.
In assay [5] the target is T1, cyno TfR extracellular domain …. Description: ELISA, IgG. (In general: An ELISA detects its analyte on a solid surface through an enzyme-linked reagent.)
Description: (§4) Affinity variants were generated by making individual alanine substitutions in CDR-L3 or CDR-H3 using standard techniques. These variants were screened as IgG by ELISA and SPR to identify positions important for binding to human and cyno TfR; the monovalent affinity of selected variants as Fab was also determined. […] Plates were washed with PBS/0.05% Tween 20 and blocked using Superblock blocking buffer in PBS (Thermo Scientific, Hudson, N.H.). Supernatants containing expressed IgG were diluted serially 1:5 and added to the plate for 1 h. […] Plates were washed with PBS/0.05% Tween 20 and 1:1000 diluted HRP-Goat-anti kappa (Southern Biotech) was added the plate and incubated for 1 h at room temperature. Plates were washed with PBS/0.05% Tween 20 and detected using TMB substrate (BioFX Laboratories, Owings Mills).
Assay [6] deals with T2, human TfR extracellular domain with …. Description: ELISA, IgG.
Description: as §4
Assay [7] has the same target. The assay can be described thus: SPR SCK 1:1 fit, IgG.
Description: as §1, §3
The target of assay [8] is T1, cyno TfR extracellular domain …. Description: SPR, TfR captured by anti-His, Fab injected.
Description: as §1, §2
Assay [9] has as its target T2, human TfR extracellular domain with …. The assay can be described thus: SPR, Fab.
Description: as §1, §3
Assay [10] addresses T3, human BACE1 ECD.
T3 construct: analyte of the Octet assay (200 nM) and enzyme of the first short substrate assay; also called human BACE1 extracellular domain
Description: Octet, pH 5.0. On the technique in general: In BLI a coated tip is dipped into the sample, and binding shifts an interference pattern.
Description: (§5) Anti-BACE1 antibodies were loaded onto anti-human capture (AHC) sensors (tips) followed by 60 seconds baseline in assay buffer. […] Tips were transferred to assay buffer for 5 minutes, 30 minutes, or 120 minutes depending on the off-rate, for off-rate measurement. Assay buffer was either PBS+0.1% BSA, pH 7.5; or PBS+0.1% BSA, pH 5.0. Kinetics were analyzed using a 1:1 binding model.

The target in assay [11] is T4, murine BACE1 ECD.
T4 construct: analyte of the Octet assay (200 nM) and enzyme of the first short substrate assay
T4 sequence (single chain, as listed by the source limits assumed): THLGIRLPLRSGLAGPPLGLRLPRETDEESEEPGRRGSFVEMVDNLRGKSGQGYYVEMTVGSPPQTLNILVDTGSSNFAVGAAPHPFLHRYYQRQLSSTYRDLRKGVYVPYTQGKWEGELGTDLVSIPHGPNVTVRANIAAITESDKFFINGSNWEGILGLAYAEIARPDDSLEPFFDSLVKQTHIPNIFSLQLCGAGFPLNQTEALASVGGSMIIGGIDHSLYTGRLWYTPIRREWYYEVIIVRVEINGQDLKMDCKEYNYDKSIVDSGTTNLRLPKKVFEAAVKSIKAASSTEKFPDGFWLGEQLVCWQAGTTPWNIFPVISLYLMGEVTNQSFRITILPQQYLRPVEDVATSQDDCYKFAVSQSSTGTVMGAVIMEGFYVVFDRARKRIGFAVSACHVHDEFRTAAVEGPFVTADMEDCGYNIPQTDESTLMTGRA
The assay can be described thus: Octet, pH 5.0.
Description: as §5

Assay [12] deals with T3, human BACE1 ECD. The assay can be described thus: Octet, pH 7.5.
T3 sequence (single chain, as listed by the source limits assumed): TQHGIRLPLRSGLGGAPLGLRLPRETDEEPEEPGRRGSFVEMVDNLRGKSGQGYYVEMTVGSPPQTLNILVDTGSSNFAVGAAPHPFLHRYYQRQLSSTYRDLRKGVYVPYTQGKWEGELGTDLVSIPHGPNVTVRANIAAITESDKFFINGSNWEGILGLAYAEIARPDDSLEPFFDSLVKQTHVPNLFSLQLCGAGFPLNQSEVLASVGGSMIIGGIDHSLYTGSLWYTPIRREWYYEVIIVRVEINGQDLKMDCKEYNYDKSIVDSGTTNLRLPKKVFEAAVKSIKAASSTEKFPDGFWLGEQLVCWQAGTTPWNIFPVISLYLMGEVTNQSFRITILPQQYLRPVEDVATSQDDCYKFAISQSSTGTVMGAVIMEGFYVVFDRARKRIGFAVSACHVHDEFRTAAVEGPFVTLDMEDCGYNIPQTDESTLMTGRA
Description: as §5
Assay [13] has as its target T4, murine BACE1 ECD. Description: Octet, pH 7.5.
Description: as §5
Assay [14] deals with BACE1 in primary mouse cortical neurons (mouse, UniProt P56818 46-501). The assay can be described thus: cell-based or functional assay.
BACE1 in primary mouse cortical neurons, sequence (P56818 46-501): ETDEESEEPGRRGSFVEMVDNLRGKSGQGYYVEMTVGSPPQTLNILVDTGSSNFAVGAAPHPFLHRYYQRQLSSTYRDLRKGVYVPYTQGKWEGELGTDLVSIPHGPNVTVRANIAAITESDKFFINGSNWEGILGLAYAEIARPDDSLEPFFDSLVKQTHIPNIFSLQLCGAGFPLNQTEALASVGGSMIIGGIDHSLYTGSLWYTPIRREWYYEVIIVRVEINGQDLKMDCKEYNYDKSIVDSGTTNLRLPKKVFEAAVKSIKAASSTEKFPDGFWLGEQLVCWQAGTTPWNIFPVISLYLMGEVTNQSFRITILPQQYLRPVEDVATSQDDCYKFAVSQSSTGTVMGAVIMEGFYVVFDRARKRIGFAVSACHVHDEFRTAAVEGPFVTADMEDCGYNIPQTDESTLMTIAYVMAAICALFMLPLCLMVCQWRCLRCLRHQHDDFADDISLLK

Residue numbers refer to the chain shown, from its start. Names and notes keep the numbering of the source. Like-named read-outs stand apart in the source and are kept apart here.
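Wherever koff is given: single cycle kinetics with a Fab dilution series, fitted by a one-to-one Langmuir model or a steady state model, KD taken as koff over kon.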
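Wherever kon is given: single cycle kinetics with a Fab dilution series, fitted by a one-to-one Langmuir model or a steady state model, KD taken as koff over kon.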

T2 sequence (P02786 89-760 G142S): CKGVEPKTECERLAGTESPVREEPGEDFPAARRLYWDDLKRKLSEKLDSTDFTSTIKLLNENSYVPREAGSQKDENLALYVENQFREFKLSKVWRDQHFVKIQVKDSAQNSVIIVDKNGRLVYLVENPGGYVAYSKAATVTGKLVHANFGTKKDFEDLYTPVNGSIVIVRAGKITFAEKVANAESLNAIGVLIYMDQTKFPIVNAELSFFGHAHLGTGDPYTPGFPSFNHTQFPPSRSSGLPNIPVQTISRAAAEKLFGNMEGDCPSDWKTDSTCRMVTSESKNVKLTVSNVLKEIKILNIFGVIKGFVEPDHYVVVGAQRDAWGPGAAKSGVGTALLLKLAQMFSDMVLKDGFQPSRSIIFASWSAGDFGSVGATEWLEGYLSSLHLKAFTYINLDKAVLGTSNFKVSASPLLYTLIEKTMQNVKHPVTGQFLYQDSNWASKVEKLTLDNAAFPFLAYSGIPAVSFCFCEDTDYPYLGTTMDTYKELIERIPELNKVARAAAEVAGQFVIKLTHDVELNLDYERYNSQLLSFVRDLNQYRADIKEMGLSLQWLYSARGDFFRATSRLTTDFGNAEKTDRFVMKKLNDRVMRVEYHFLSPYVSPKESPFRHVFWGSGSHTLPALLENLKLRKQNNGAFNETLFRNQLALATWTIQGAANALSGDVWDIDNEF

B1: Mu16F6.Fab (Fab, V domains shown)
VH: DVQLQESGPGLVKPSQSLSLTCTVTGNSITSEYAWNWIRQFPGNKLEWMGYISYSGTTSYNPSLKSRISITRDTSKNQLFLQLNSVTTEDTATYFCARYGYGNPATRYFDVWGAGTTVTVSS
VL: DVQITQSPSYLTASPGETITINCRASKSISKYLAWYQEKPGKTNKLLIYSGSTLQSGIPSRFSGSGSGTDFTLTISNLEPEDFAMYYCQQHNEYPWTFGGGTKLEIK
notes: Fab; also called mouse 16F6 Fab
A word on the koff: it is the first-order rate constant of dissociation. A low value points to slow dissociation. As a reminder, the kon is a measure of how fast the partners come together. Consider B1, for which, in [1], the koff is 0.00137 s⁻¹ and the kon came to 51100 M⁻¹ s⁻¹. In assay [2], the koff worked out at 0.00019 s⁻¹ and the on-rate constant (kon) was found to be 60700 M⁻¹ s⁻¹. Besides, in [3], the Cy/hu ratio was found to be 8.56.

B2: Mu7A4.Fab (Fab, V domains shown)
VH: QVQLQQSGPELVRPGVSVKISCKGSGYTFTDYAMHWVKQSHAKSLEWIGGISTYFGRTNYNQKFKGRATMTVDKSSSTAYMELARLTSEDSALYYCARGLSGNYVMDYWGQGTSVTVSS
VL: DIVLTQSPASLAVSLGQRATISCRASESVDDYGNSFMHWYQQKPGQPPKLLIYRASNLESGIPARFSGSGSRTDFTLTINPVEADDVATYYCQQSNEAPPTFGGGTKLEIR
notes: Fab; also called mouse 7A4 Fab
In general, Kd refers to the free concentration of one partner at which half of the binding sites on the other are occupied at equilibrium, for simple one-to-one binding. For the molecule B2, in assay [1], binding was characterised by a dissociation constant (Kd) of 0.741 nM, the koff is 0.000845 s⁻¹ and the kon stood at 1.14e+06 M⁻¹ s⁻¹. For the same molecule, in assay [2], binding was characterised by a dissociation constant (Kd) of 0.19 nM, the dissociation rate constant (koff) came to 0.000313 s⁻¹ and the association rate constant (kon) was determined as 1.65e+06 M⁻¹ s⁻¹. Besides, in [3], the Cy/hu ratio was 3.9.

B3: F91A (antibody, V domains shown)
VH: EVQLVQSGAEVKKPGASVKVSCKASGYTFTSYWMHWVRQAPGQRLEWIGEINPTNGRTNYIEKFKSRATLTVDKSASTAYMELSSLRSEDTAVYYCARGTRAYHYWGQGTMVTVSS
VL: DIQMTQSPSSLSASVGDRVTITCRASDNLYSNLAWYQQKPGKSPKLLVYDATNLADGVPSRFSGSGSGTDYTLTISSLQPEDFATYYCQHAWGTPLTFGQGTKVEIK
notes: also called 15G11.v5 F91A (CDR-L3) IgG
The EC50 is the concentration needed to bring the measured effect to its halfway point. A high value points to a less potent agent. As for B3, the dissociation constant (Kd) in [4] is 228 nM; in assay [7], 167 nM. Moreover, the EC50 in assay [5] was determined as 0.953 µg/mL; in assay [6] it was 0.0458 µg/mL.

B4: T96A (antibody, V domains shown)
VH: B3 VH with T100A
VL: B3 VL with A91F
notes: also called 15G11.v5 T96A (CDR-H3) IgG; copies: 2 + 2
With B4, the dissociation constant Kd in [4] was 433 nM; in assay [7], 173 nM. Further, the concentration for a half-maximal effect (EC50) in assay [5] came out at 3.38 µg/mL; in assay [6], 0.274 µg/mL.

B5: Hu15G11.HC32A Fab (Fab, V domains shown)
VH: B3 VH with Y32A
VL: B3 VL with A91F
notes: Fab
B5 yielded a Kd in assay [8] of 48 nM.

B6: W92A (Fab, V domains shown)
VH: B3 VH
VL: B3 VL with A91F, W92A
notes: also called 15G11.v5 W92A (CDR-L3) Fab
With B6, in assay [9], the Kd came to 280 nM.

B7: W92A (antibody, V domains shown)
VH: B3 VH
VL: B3 VL with A91F, W92A
notes: also called 15G11.v5 W92A (CDR-L3) IgG; 15G11.W92A
As for B7, the dissociation constant Kd in assay [4] amounted to 123 nM; in [7], 31 nM. In addition, the EC50 in assay [6] amounted to 0.0118 µg/mL.

B8: F91A (Fab, V domains shown)
VH: B3 VH
VL: B3 VL
notes: also called 15G11.v5 F91A (CDR-L3) Fab
With B8, in assay [9], the affinity, expressed as Kd, was 383 nM.

B9: 6313 (antibody, V domains shown)
VH: QLQLQESGPGLVKPSETLSLTCTVSGGSISRGSYYWGWIRQPPGKGLEWIGMIYYSGSTWYNPSLKSRVTISVDTSKNQFSLKLSSVTAADTAVYYCARVGHGVSYFDLWGRGTLVTVSS
VL: EIVLTQSPATLSLSPGERATLSCRASQSVSSYLAWYQQKPGQAPRLLIYDASNRATGIPARFSGSGSGTDFTLTISSLEPEDFAVYYCQQAYVWPPRTFGGGTKVEIK
notes: anti-BACE1 IgG
Consider B9, for which the dissociation constant (Kd) in assay [10] was less than 0.21 nM; in [11], less than 0.24 nM; in assay [12] it was 0.41 nM; in assay [13], 0.27 nM. In addition, in assay [14], the “IC50, Abeta x-40 in mouse cortical neurons” value came out at 2.78 nM. Also, in [14], the “maximal % inhibition of Abeta x-40” value amounted to 67%.

B10: 6315 (antibody, V domains shown)
VH: B9 VH
VL: B9 VL with N53K, A91S, Y92L, T103A
notes: anti-BACE1 IgG
For B10, the Kd in assay [10] was less than 0.21 nM; in assay [11] it was less than 0.25 nM; in assay [12], less than 0.25 nM; in [13], less than 0.26 nM. In [14], the “maximal % inhibition of Abeta x-40” value was 73%.

B11: 6314 (antibody, V domains shown)
VH: B9 VH
VL: B9 VL with A91S, Y92I
notes: anti-BACE1 IgG
For the molecule B11, the dissociation constant (Kd) in [10] was less than 0.22 nM; in assay [11], less than 0.26 nM; in assay [12], 0.38 nM; in assay [13], 0.33 nM. Also, the “IC50, Abeta x-40 in mouse cortical neurons” value in assay [14] came to 3.38 nM. In [14], the “maximal % inhibition of Abeta x-40” value is 71%.

B12: Hu16F6.v4.Fab (Fab, V domains shown)
VH: EVQLVESGPGLVKPSETLSLTCTVSGNSITSEYAWNWIRQPPGKGLEWIGYISYSGTTSYNPSLKSRVTISRDTSKNQLSLKLSSVTAADTAVYYCARYGYGNPATRYFDVWGQGTLVTVSS
VL: DIQMTQSPSSLSASVGDRVTITCRASKSISKYLAWYQQKPGKTNKLLLYSGSTLQSGVPSRFSGSGSGTDYTLTISSLQPEDFATYYCQQHNEYPWTFGQGTKVEIK
notes: Fab
Regarding B12, the dissociation rate constant (koff) in [1] turned out to be 0.00244 s⁻¹; in assay [2], 0.000169 s⁻¹. Also, the results for the kon in assay [1] and in assay [2] were 98900 M⁻¹ s⁻¹ and 131000 M⁻¹ s⁻¹, respectively. The Cy/hu ratio in assay [3] is 19.1.
